In the supplement of paper PMC10567573:

B1: INTS3 (parent)
chain: FSDDEEDLNSKGKKREFRFHPIKE
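Further: lentivirally expressed fusions sorted by FACS into six bins by GFP to DsRed ratio, PSI derived from sequencing read proportions per bin multiplied by bin number.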

Variants of: B1
Assay: protein stability index of a GFP-peptide fusion (GPS, HEK-293T) (PSI 1-6); higher = more stable
Conditions: c terminus: a fixed tail appended
With FSDDEEPLNSKGKKREFRFHPIKE [D7P] the protein stability index was 2.18.
With FSDDEEILNSKGKKREFRFHPIKE [D7I] the protein stability index was 2.12.
Work on FSDDEEGLNSKGKKREFRFHPIKE [D7G] yielded a protein stability index of 2.13.
FSDDEECLNSKGKKREFRFHPIKE [D7C] gave a protein stability index of 1.99.
Work on FSDDEEFLNSKGKKREFRFHPIKE [D7F] yielded a protein stability index of 2.47.
For FSDDEEMLNSKGKKREFRFHPIKE [D7M], the protein stability index was 2.59.
With FSDDEEWLNSKGKKREFRFHPIKE [D7W] the protein stability index was 2.23.
FSDDEEKLNSKGKKREFRFHPIKE [D7K] showed a protein stability index of 2.04.
Work on FSDDEEHLNSKGKKREFRFHPIKE [D7H] yielded a protein stability index of 2.52.
FSDDEERLNSKGKKREFRFHPIKE [D7R] gave a protein stability index of 1.92.
In the case of FSDDEELLNSKGKKREFRFHPIKE [D7L], the protein stability index is reported as 2.56.
Work on FSDDEETLNSKGKKREFRFHPIKE [D7T] yielded a protein stability index of 2.58.
FSDREEDLNSKGKKREFRFHPIKE [D4R] gave a protein stability index of 1.85.
Work on FSDEEEDLNSKGKKREFRFHPIKE [D4E] yielded a protein stability index of 3.05.
With FSDKEEDLNSKGKKREFRFHPIKE [D4K] the protein stability index was 2.02.
Variant FSDSEEDLNSKGKKREFRFHPIKE [D4S] has a protein stability index of 2.75.
With FSDGEEDLNSKGKKREFRFHPIKE [D4G] the protein stability index was 2.52.
FSDLEEDLNSKGKKREFRFHPIKE [D4L] gave a protein stability index of 2.43.
Work on FSDWEEDLNSKGKKREFRFHPIKE [D4W] yielded a protein stability index of 2.4.
With FSDDEEDLSSKGKKREFRFHPIKE [N9S] the protein stability index was 2.98.
Variant FSDDEEDLGSKGKKREFRFHPIKE [N9G] has a protein stability index of 2.82.
FSDDEEDLPSKGKKREFRFHPIKE [N9P] showed a protein stability index of 2.61.
Variant FSDDEEDLCSKGKKREFRFHPIKE [N9C] has a protein stability index of 2.67.
FSDDEEDLKSKGKKREFRFHPIKE [N9K] showed a protein stability index of 2.21.
For FSDDEEDLNSKGKKREFRSHPIKE [F19S], the protein stability index was 5.6.
Variant FSDDEEDLNSKGKKREFRRHPIKE [F19R] has a protein stability index of 5.29.
FSDDEEDLNSKGKKREFRMHPIKE [F19M] showed a protein stability index of 4.86.
With FSDDEEDLNSKGKKREFRGHPIKE [F19G] the protein stability index was 4.98.
Work on FSDDEEDLNSKGKKREFRNHPIKE [F19N] yielded a protein stability index of 5.26.
With FSDDEEDLNSKGKKREFRDHPIKE [F19D] the protein stability index was 5.53.
In the case of FSDDEEDLNSKGKKREFRPHPIKE [F19P], the protein stability index is reported as 5.07.
With FSDDEEDLNSKGKKREFRYHPIKE [F19Y] the protein stability index was 3.49.
In the case of FSDDEEDLNSKGKKREFRCHPIKE [F19C], the protein stability index is reported as 4.98.
For FSDDEEDLNSKGKKREFRHHPIKE [F19H], the protein stability index was 5.29.
FSDDEEDLNSKGKKREFRKHPIKE [F19K] gave a protein stability index of 5.4.
In the case of FSDDEEDLNSKGKKREFRVHPIKE [F19V], the protein stability index is reported as 5.1.
FSDDEEDLNSKGKKREFRAHPIKE [F19A] showed a protein stability index of 5.07.
For FSDDEEDLNSKGKKREFRFHFIKE [P21F], the protein stability index was 3.58.
With FSDDEEDLNSKGKKREFRFHEIKE [P21E] the protein stability index was 4.
In the case of FSDDEEDLNSKGKKREFRFHIIKE [P21I], the protein stability index is reported as 3.7.
Variant FSDDEEDLNSKGKKREFRFHMIKE [P21M] has a protein stability index of 3.32.
Variant FSDDEEDLNSKGKKREFRFHTIKE [P21T] has a protein stability index of 4.43.
With FSDDEEDLNSKGKKREFRFHHIKE [P21H] the protein stability index was 4.01.
In the case of FSDDEEDLNSKGKKREFRFHRIKE [P21R], the protein stability index is reported as 4.19.
FSDDEEDLNSKGKKREFRFHKIKE [P21K] gave a protein stability index of 4.55.
Work on FSDDEEDLNSKGKKREFRFHQIKE [P21Q] yielded a protein stability index of 3.44.
In the case of FSDDEEDLNSKGKKREFRFHSIKE [P21S], the protein stability index is reported as 3.88.
In the case of FSDDEEDLNSKGKKREFRFHCIKE [P21C], the protein stability index is reported as 3.28.
Variant FSDDEEDLNSKGWKREFRFHPIKE [K13W] has a protein stability index of 2.29.
For FSDDEEDLNSKGVKREFRFHPIKE [K13V], the protein stability index was 2.11.
With FSDDEEDLNSKGLKREFRFHPIKE [K13L] the protein stability index was 3.54.
Work on FSDDEEDLNSKGHKREFRFHPIKE [K13H] yielded a protein stability index of 2.31.
Work on FSDDEEDLNSKGIKREFRFHPIKE [K13I] yielded a protein stability index of 2.31.
Variant FSDDEEDLNSKGRKREFRFHPIKE [K13R] has a protein stability index of 2.99.
In the case of FSDDEEDLNSKGMKREFRFHPIKE [K13M], the protein stability index is reported as 3.23.
Work on FSDDEEDLNSKGAKREFRFHPIKE [K13A] yielded a protein stability index of 3.41.
In the case of FSDDEEDLNSKGFKREFRFHPIKE [K13F], the protein stability index is reported as 2.44.
In the case of FSDDEEDLNSKGKKREFRFHPQKE [I22Q], the protein stability index is reported as 3.32.
FSDDEEDLNSKGKKREFRFHPAKE [I22A] gave a protein stability index of 2.88.
FSDDEEDLNSKGKKREFRFHPMKE [I22M] gave a protein stability index of 3.2.
With FSDDEEDLNSKGKKREFRFHPHKE [I22H] the protein stability index was 2.91.
FSDDEEDLNSKGKKREFRFHPCKE [I22C] gave a protein stability index of 2.48.
For FSDDEEDLNSKGKKREFRFHPKKE [I22K], the protein stability index was 2.81.
With FSDDPEDLNSKGKKREFRFHPIKE [E5P] the protein stability index was 2.48.
FSDDQEDLNSKGKKREFRFHPIKE [E5Q] showed a protein stability index of 2.3.
For FSDDYEDLNSKGKKREFRFHPIKE [E5Y], the protein stability index was 2.29.
Work on FSDDKEDLNSKGKKREFRFHPIKE [E5K] yielded a protein stability index of 2.17.
With FSDDNEDLNSKGKKREFRFHPIKE [E5N] the protein stability index was 2.39.
With FSDDLEDLNSKGKKREFRFHPIKE [E5L] the protein stability index was 2.55.
Work on FSDDHEDLNSKGKKREFRFHPIKE [E5H] yielded a protein stability index of 2.18.
Work on FSDDEEDLNSSGKKREFRFHPIKE [K11S] yielded a protein stability index of 3.22.
FSDDEEDLNSQGKKREFRFHPIKE [K11Q] gave a protein stability index of 3.62.
Variant FSDDEEDLNSNGKKREFRFHPIKE [K11N] has a protein stability index of 3.44.
With FSDDEEDLNSYGKKREFRFHPIKE [K11Y] the protein stability index was 3.29.
Variant FSDDEEDLNSFGKKREFRFHPIKE [K11F] has a protein stability index of 3.24.
FSDDEEDLNSEGKKREFRFHPIKE [K11E] showed a protein stability index of 3.38.
FSDDEEDLNSHGKKREFRFHPIKE [K11H] gave a protein stability index of 3.13.
Work on FSDDEEDLNSWGKKREFRFHPIKE [K11W] yielded a protein stability index of 1.9.
In the case of FSDDEEDLNSGGKKREFRFHPIKE [K11G], the protein stability index is reported as 3.02.
For FSDDEFDLNSKGKKREFRFHPIKE [E6F], the protein stability index was 2.13.
For FSDDEHDLNSKGKKREFRFHPIKE [E6H], the protein stability index was 2.29.
For FSDDETDLNSKGKKREFRFHPIKE [E6T], the protein stability index was 3.08.
With FSDDEVDLNSKGKKREFRFHPIKE [E6V] the protein stability index was 2.27.
For FSDDESDLNSKGKKREFRFHPIKE [E6S], the protein stability index was 2.15.
With FSDDEKDLNSKGKKREFRFHPIKE [E6K] the protein stability index was 2.61.
In the case of FSDDEEDLNSKGKKREWRFHPIKE [F17W], the protein stability index is reported as 2.01.
With FSDDEEDLNSKGKKREQRFHPIKE [F17Q] the protein stability index was 5.18.
Variant FSDDEEDLNSKGKKREARFHPIKE [F17A] has a protein stability index of 5.13.
In the case of FSDDEEDLNSKGKKREYRFHPIKE [F17Y], the protein stability index is reported as 4.35.
Work on FSDDEEDLNSKGKKRESRFHPIKE [F17S] yielded a protein stability index of 5.44.
For FSDDEEDLNSKGKKREGRFHPIKE [F17G], the protein stability index was 5.18.
In the case of FSDDEEDLNSKGKKRENRFHPIKE [F17N], the protein stability index is reported as 5.01.
FSDDEEDLNSKGKKREMRFHPIKE [F17M] showed a protein stability index of 4.79.
Work on FSDDEEDLNSKGKKRETRFHPIKE [F17T] yielded a protein stability index of 5.04.
